Laboratory results reported in patent US20050221478A1, “Control of es cell self renewal and lineage specification, and medium therefor” (University of Edinburgh, priority 2002, published 2005).

Legend:
[1] = system: ES cells; experiment: Serum-free medium and transient growth factor stimulation: numbers of undifferentiated ES cells; type: cell-based; conditions: factor continuously present in LIF and BMP4 medium
Experimental: ES cells were grown initally in a medium comprising DMEM F12 plus neurobasal medium (ratio 1:1) supplemented with N2-B27. ES cells were plated at very low density, about 1000-10,000 cells on a 3.5 cm diameter plate and grown on in the same medium supplemented with LIF and BMP4. […]
We observed enhanced numbers of undifferentiated ES cells, indicating increased proliferation or increased ES cell survival, or both.
After more (5-6) passages the rank order of efficacy changed to:—

[2] = system: ES cells; experiment: Extended passaging of ES cells in serum free, feeder cell free defined culture media; type: cell-based, murine; conditions: after multiple passages in serum free medium
Description: When using the LIF and BMP4-containing medium of a specific embodiment of the present invention extended passaging of ES cells is possible. In one example, murine ES cells have been maintained for more than 20 passages over a three month period. Cells were passaged every 2-4 days depending on the plating cell density, though occasionally cells were passaged 7-10 days after plating at low density.
In an alternative embodiment, it is an option not to remove the FGF receptor inhibitor. […] ES-cells can be grown in culture for at least 20 passages in. N2B27 medium in the presence of LIF and an FGF inhibitor, in the absence of BMP. If the FGF receptor inhibitor is not removed from the medium, it is preferred that it is a specific inhibitor and has little or no activity on other receptors.
N2B27 (1:1 mixture of DMEM/F12 medium supplemented with modified N2 (25 μg/ml insulin, 100 μg/ml apo-transferrin, 6 ng/ml progesterone, 16 μg/ml putrescine, 30 nM sodium selenite and 50 μg/ml bovine serum albumin) and Neurobasal medium supplemented with B27)
ES cells were cultured in 0.1% gelatin coated dishes in N2B27 medium supplemented with LIF (100 U/ml) and BMP4 (10 ng/ml). For passaging, a standard protein-free cell dissociation buffer was used to dissociate cells.
The plating density of the cells was approximately 1-5×10^4/cm^2. […]

[3] = system: ES cells; experiment: Self-renewal of pluripotent cells with agonists of a receptor of the TGF-β superfamily or FGF receptor inhibitor; type: cell-based

With “TGFβ: growth factor added to the culture medium at 1-2 ng/ml” the “effect when continuously present” value [1] was “progressive differentiation of the ES cells”.

B1: BMP4: bone morphogenetic protein, agonist of a receptor of the TGF-β superfamily (protein, UniProt P12644 293-408, looked up)
Bone morphogenetic protein 4: SPKHHSQRARKKNKNCRRHSLYVDFSDVGWNDWIVAPPGYQAFYCHGDCPFPLADHLNSTNHAIVQTLVNSVNSSIPKACCVPTELSAISMLYLDEYDKVVLKNYQEMVVEGCGCR
In the case of B1, the “differentiation of ES cells in the presence of BMP4 but absence of LIF” value [2] is reported as “differentiated into large flat cells of characteristic morphology” and the “result as agonist of a receptor of the TGF-β superfamily for self-renewal” value [3] is reported as “Good results”.

B2: activin A: growth factor added to the culture medium at 5 ng/ml (protein, UniProt P08476 311-426, looked up)
Inhibin beta A chain: GLECDGKVNICCKKQFFVSFKDIGWNDWIIAPSGYHANYCEGECPSHIAGTSGSSLSFHSTVINHYRMRGHSPFANLKSCCVPTKLRPMSMLYYDDGQNIIKKDIQNMIVEECGCS
With B2 the “effect when continuously present” value [1] was “progressive differentiation of the ES cells”.
